In assay [1] the target is T1, human amylin receptor (amylin 3(a) receptor: human calcitonin receptor with RAMP-3) (human, UniProt P30988 25-474; O60896 24-148, limits assumed).
T1 construct: whole, on cells; Assay V: membranes of the Amylin 3(a)/CRE-luc BHK cells on SPA beads; also called hAmylin-R
T1 sequence (looked up) 1: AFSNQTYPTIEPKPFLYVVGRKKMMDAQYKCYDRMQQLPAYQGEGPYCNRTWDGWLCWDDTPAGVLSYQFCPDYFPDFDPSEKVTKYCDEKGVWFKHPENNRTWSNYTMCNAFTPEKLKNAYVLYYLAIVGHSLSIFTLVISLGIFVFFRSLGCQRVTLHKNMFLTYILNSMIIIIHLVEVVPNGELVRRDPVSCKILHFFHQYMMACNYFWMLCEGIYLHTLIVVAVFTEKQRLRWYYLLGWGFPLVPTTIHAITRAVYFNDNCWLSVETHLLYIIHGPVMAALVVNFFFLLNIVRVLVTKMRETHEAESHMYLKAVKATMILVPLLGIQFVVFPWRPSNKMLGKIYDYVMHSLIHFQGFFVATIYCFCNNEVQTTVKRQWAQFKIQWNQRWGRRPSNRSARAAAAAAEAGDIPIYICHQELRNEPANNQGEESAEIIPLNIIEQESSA
T1 sequence (looked up) 2: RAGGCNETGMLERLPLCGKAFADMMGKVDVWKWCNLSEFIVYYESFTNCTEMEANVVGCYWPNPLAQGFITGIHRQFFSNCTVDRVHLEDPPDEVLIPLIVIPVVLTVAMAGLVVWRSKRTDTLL
In words: SPA competition vs 125I-rat amylin, membranes with human CTR + RAMP-3 (Assay V). As for the experimental part: The binding assay was performed using scintillation proximity assay (SPA) beads (RPNQ0001) from PerkinElmer and cell membranes from the Amylin 3(a)/CRE-luc cells (as described in Assay (II)) were used. Membranes were prepared in the following way; the cells were rinsed with PBS and incubated with Versene for approximately 5 min before harvesting. The cells were flushed with PBS and the cell-suspension was centrifuged for 5 min at 1000 rpm. […] The resulting pellet was resuspended in buffer 2 and protein concentration was tested (BCA protein Assay, Pierce). The homogenate was kept cold during the whole procedure. The membranes were kept at −80° C. until use. The assay was performed in a 384 well Optiplate (PerkinElmer) in a total volume of 40 ul. Membranes were mixed with SPA beads. Final concentration of membranes 35 ng/μL final and SPA beads was 0.05 mg/well. Test-compounds were dissolved in DMSO and further diluted in assay buffer (50 mM Hepes, pH 7.4, 1 mM CaCl2, 5 mM MgCl2, 0.1% OA and 0.02% Tween20). […] Samples were analyzed on TopCounter™ (Packard). The IC₅₀ was calculated using (one site binding competition analysis) GraphPad Prism5 as a measure of receptor affinity.

For assay [2], the target named is T2, human calcitonin receptor (human, UniProt P30988 25-474).
T2 construct: whole, on cells; Assay VII: membranes on SPA beads; also called hCT-R; hCTR
T2 sequence (looked up): T1 sequence (looked up) 1
The assay is described as follows: SPA competition vs 125I-calcitonin, membranes with human CTR (Assay VII). Here is the method:
The binding assay was performed using scintillation proximity assay (SPA) beads (RPNQ0001) from PerkinElmer® and cell membranes prepared from a BHK tk'ts 13 cell line was stably transfected with the human calcitonin receptor and a CRE-responsive luciferase reporter gene. Membranes were prepared in the following way; the cells were rinsed with PBS and incubated with Versene for approximately 5 min before harvesting. The cells were flushed with PBS and the cell-suspension was centrifuged for 5 min at 1000 rpm.
EDTA (pH 7.4, buffer 2). The resulting pellet was resuspended in buffer 2 and protein concentration was tested (BCA protein Assay, Pierce). The homogenate was kept cold during the whole procedure. The membranes were kept at −80° C. until use. Assay was performed in a 384 well Optiplate (PerkinElmer®) in a total volume of 40 ul. Membranes were mixed with SPA beads. Final concentration of membranes 35 ng/μL final and Final concentration of SPA beads was 0.05 mg/well. Test-compounds were dissolved in DMSO and further diluted in assay buffer (50 mM Hepes, pH 7.4, 1 mM CaCl2, 5 mM MgCl2, 0.1% OA and 0.02% Tween20). […] Samples were analyzed on TopCounter™ (Packard). The IC₅₀ was calculated using (one site binding competition analysis) GraphPad Prism5 as a measure of receptor affinity.

Numbered stars: 1 amine (or outer) side, 2 acyl side, 3 side chain; on linkers, the order of the positions; unused ones are H or OH. Side chains are listed from the residue outwards. Ends that are not written are not given here. * marks the point of attachment. C20 diacid = O=C(O)CCCCCCCCCCCCCCCCCCC(=O)*; C18 diacid = O=C(O)CCCCCCCCCCCCCCCCC(=O)*; γGlu = O=C(O)[C@H](CCC(=O)[*:2])N[*:1]

B1: [N-terminal(C18 diacid-gGlu), des1, 6T, 9V, 14T, 21E, 30T, 31G, 32T]mimylin (peptide)
peptide: {C18 diacid-γGlu}-ASELTTAVLGRLTAELHELETLPRTETGTGTP-NH2
SMILES: CC(C)C[C@H](NC(=O)[C@H](CCC(=O)O)NC(=O)[C@H](C)NC(=O)[C@@H](NC(=O)[C@H](CC(C)C)NC(=O)[C@H](CCCNC(=N)N)NC(=O)CNC(=O)[C@H](CC(C)C)NC(=O)[C@@H](NC(=O)[C@H](C)NC(=O)[C@@H](NC(=O)[C@@H](NC(=O)[C@H](CC(C)C)NC(=O)[C@H](CCC(=O)O)NC(=O)[C@H](CO)NC(=O)[C@H](C)NC(=O)CC[C@H](NC(=O)CCCCCCCCCCCCCCCCC(=O)O)C(=O)O)[C@@H](C)O)[C@@H](C)O)C(C)C)[C@@H](C)O)C(=O)N[C@@H](Cc1c[nH]cn1)C(=O)N[C@@H](CCC(=O)O)C(=O)N[C@@H](CC(C)C)C(=O)N[C@@H](CCC(=O)O)C(=O)N[C@H](C(=O)N[C@@H](CC(C)C)C(=O)N1CCC[C@H]1C(=O)N[C@@H](CCCNC(=N)N)C(=O)N[C@H](C(=O)N[C@@H](CCC(=O)O)C(=O)N[C@H](C(=O)NCC(=O)N[C@H](C(=O)NCC(=O)N[C@H](C(=O)N1CCC[C@H]1C(N)=O)[C@@H](C)O)[C@@H](C)O)[C@@H](C)O)[C@@H](C)O)[C@@H](C)O
notes: mimylin derivative; des1 = residue 1 deleted
As usually defined, the IC50 is the point on the concentration scale where inhibition reaches its midpoint. As for B1, the figures for the IC50 in assay [1] and in assay [2] were 0.309 nM and 0.222 nM, respectively.

B2: [N-terminal(C20 diacid-gGlu), des1, 30S, 31G, 33Y]mimylin (peptide)
peptide: {C20 diacid-γGlu}-ASELSTAALGRLSAELHELATLPRTETGSGSY-NH2
SMILES: CC(C)C[C@H](NC(=O)[C@H](C)NC(=O)[C@H](C)NC(=O)[C@@H](NC(=O)[C@H](CO)NC(=O)[C@H](CC(C)C)NC(=O)[C@H](CCC(=O)O)NC(=O)[C@H](CO)NC(=O)[C@H](C)NC(=O)CC[C@H](NC(=O)CCCCCCCCCCCCCCCCCCC(=O)O)C(=O)O)[C@@H](C)O)C(=O)NCC(=O)N[C@@H](CCCNC(=N)N)C(=O)N[C@@H](CC(C)C)C(=O)N[C@@H](CO)C(=O)N[C@@H](C)C(=O)N[C@@H](CCC(=O)O)C(=O)N[C@@H](CC(C)C)C(=O)N[C@@H](Cc1c[nH]cn1)C(=O)N[C@@H](CCC(=O)O)C(=O)N[C@@H](CC(C)C)C(=O)N[C@@H](C)C(=O)N[C@H](C(=O)N[C@@H](CC(C)C)C(=O)N1CCC[C@H]1C(=O)N[C@@H](CCCNC(=N)N)C(=O)N[C@H](C(=O)N[C@@H](CCC(=O)O)C(=O)N[C@H](C(=O)NCC(=O)N[C@@H](CO)C(=O)NCC(=O)N[C@@H](CO)C(=O)N[C@@H](Cc1ccc(O)cc1)C(N)=O)[C@@H](C)O)[C@@H](C)O)[C@@H](C)O
notes: mimylin derivative; des1 = residue 1 deleted; also called Ex. #59; 59
Consider B2, for which the half-inhibitory concentration (IC50) in assay [1] turned out to be 0.243 nM; in assay [2], 0.113 nM.

B3: [N-terminal(acetyl), des1, 16K(C20 diacid-gGlu), 30S, 31G]mimylin (peptide)
peptide: Ac-ASELSTAALGRLSAK([γGlu-C20 diacid])LHELATLPRTETGSGSP-NH2
notes: mimylin derivative; des1 = residue 1 deleted; also called Ex. #69; 69
In the case of B3, the results for the IC50 in assay [1] and in assay [2] were 0.074 nM and 0.046 nM, respectively.

B4: [N-terminal(acetyl), des1, 4K(C20 diacid-gGlu), 30S, 31G]mimylin (peptide)
peptide: Ac-ASK([γGlu-C20 diacid])LSTAALGRLSAELHELATLPRTETGSGSP-NH2
notes: mimylin derivative; des1 = residue 1 deleted; also called Ex. #68; 68
As to B4, the values for the IC50 in assay [1] and in assay [2] were 0.05 nM and 0.01 nM, respectively.

B5: [N-terminal(acetyl), des1, 19K(C20 diacid-gGlu), 30S, 31G]mimylin (peptide)
peptide: Ac-ASELSTAALGRLSAELHK([γGlu-C20 diacid])LATLPRTETGSGSP-NH2
notes: mimylin derivative; des1 = residue 1 deleted; also called Ex. #70; 70
In the case of B5, the values for the IC50 in assay [1] and in assay [2] were 0.206 nM and 0.077 nM, respectively.

B6: [des1, 19K(C20 diacid-gGlu), 30S, 31G]mimylin (peptide)
peptide: ASELSTAALGRLSAELHK([γGlu-C20 diacid])LATLPRTETGSGSP-NH2
modifications: N-terminus assumed
SMILES: CC(C)C[C@H](NC(=O)[C@H](C)NC(=O)[C@H](C)NC(=O)[C@@H](NC(=O)[C@H](CO)NC(=O)[C@H](CC(C)C)NC(=O)[C@H](CCC(=O)O)NC(=O)[C@H](CO)NC(=O)[C@H](C)N)[C@@H](C)O)C(=O)NCC(=O)N[C@@H](CCCNC(=N)N)C(=O)N[C@@H](CC(C)C)C(=O)N[C@@H](CO)C(=O)N[C@@H](C)C(=O)N[C@@H](CCC(=O)O)C(=O)N[C@@H](CC(C)C)C(=O)N[C@@H](Cc1c[nH]cn1)C(=O)N[C@@H](CCCCNC(=O)CC[C@H](NC(=O)CCCCCCCCCCCCCCCCCCC(=O)O)C(=O)O)C(=O)N[C@@H](CC(C)C)C(=O)N[C@@H](C)C(=O)N[C@H](C(=O)N[C@@H](CC(C)C)C(=O)N1CCC[C@H]1C(=O)N[C@@H](CCCNC(=N)N)C(=O)N[C@H](C(=O)N[C@@H](CCC(=O)O)C(=O)N[C@H](C(=O)NCC(=O)N[C@@H](CO)C(=O)NCC(=O)N[C@@H](CO)C(=O)N1CCC[C@H]1C(N)=O)[C@@H](C)O)[C@@H](C)O)[C@@H](C)O
notes: mimylin derivative; des1 = residue 1 deleted; also called Ex. #54; 54
As to B6, the half-inhibitory concentration (IC50) in assay [1] is 0.442 nM; in assay [2], 0.085 nM.

B7: [des1, 4K(C20 diacid-gGlu), 30S, 31G]mimylin (peptide)
peptide: ASK([γGlu-C20 diacid])LSTAALGRLSAELHELATLPRTETGSGSP-NH2
modifications: N-terminus assumed
SMILES: CC(C)C[C@H](NC(=O)[C@H](C)NC(=O)[C@H](C)NC(=O)[C@@H](NC(=O)[C@H](CO)NC(=O)[C@H](CC(C)C)NC(=O)[C@H](CCCCNC(=O)CC[C@H](NC(=O)CCCCCCCCCCCCCCCCCCC(=O)O)C(=O)O)NC(=O)[C@H](CO)NC(=O)[C@H](C)N)[C@@H](C)O)C(=O)NCC(=O)N[C@@H](CCCNC(=N)N)C(=O)N[C@@H](CC(C)C)C(=O)N[C@@H](CO)C(=O)N[C@@H](C)C(=O)N[C@@H](CCC(=O)O)C(=O)N[C@@H](CC(C)C)C(=O)N[C@@H](Cc1c[nH]cn1)C(=O)N[C@@H](CCC(=O)O)C(=O)N[C@@H](CC(C)C)C(=O)N[C@@H](C)C(=O)N[C@H](C(=O)N[C@@H](CC(C)C)C(=O)N1CCC[C@H]1C(=O)N[C@@H](CCCNC(=N)N)C(=O)N[C@H](C(=O)N[C@@H](CCC(=O)O)C(=O)N[C@H](C(=O)NCC(=O)N[C@@H](CO)C(=O)NCC(=O)N[C@@H](CO)C(=O)N1CCC[C@H]1C(N)=O)[C@@H](C)O)[C@@H](C)O)[C@@H](C)O
notes: mimylin derivative; des1 = residue 1 deleted; also called Ex. #52; 52
Consider B7, for which the concentration for half-maximal inhibition (IC50) turned out to be 0.724 nM in assay [1] and 0.136 nM in assay [2].

B8: [des1, 16K(C20 diacid-gGlu), 30S, 31G]mimylin (peptide)
peptide: ASELSTAALGRLSAK([γGlu-C20 diacid])LHELATLPRTETGSGSP-NH2
modifications: N-terminus assumed
SMILES: CC(C)C[C@H](NC(=O)[C@H](C)NC(=O)[C@H](C)NC(=O)[C@@H](NC(=O)[C@H](CO)NC(=O)[C@H](CC(C)C)NC(=O)[C@H](CCC(=O)O)NC(=O)[C@H](CO)NC(=O)[C@H](C)N)[C@@H](C)O)C(=O)NCC(=O)N[C@@H](CCCNC(=N)N)C(=O)N[C@@H](CC(C)C)C(=O)N[C@@H](CO)C(=O)N[C@@H](C)C(=O)N[C@@H](CCCCNC(=O)CC[C@H](NC(=O)CCCCCCCCCCCCCCCCCCC(=O)O)C(=O)O)C(=O)N[C@@H](CC(C)C)C(=O)N[C@@H](Cc1c[nH]cn1)C(=O)N[C@@H](CCC(=O)O)C(=O)N[C@@H](CC(C)C)C(=O)N[C@@H](C)C(=O)N[C@H](C(=O)N[C@@H](CC(C)C)C(=O)N1CCC[C@H]1C(=O)N[C@@H](CCCNC(=N)N)C(=O)N[C@H](C(=O)N[C@@H](CCC(=O)O)C(=O)N[C@H](C(=O)NCC(=O)N[C@@H](CO)C(=O)NCC(=O)N[C@@H](CO)C(=O)N1CCC[C@H]1C(N)=O)[C@@H](C)O)[C@@H](C)O)[C@@H](C)O
notes: mimylin derivative; des1 = residue 1 deleted; also called Ex. #53; 53
For the molecule B8, the IC50 in assay [1] came out at 0.114 nM; in assay [2], 0.215 nM.

(Values after patent US20160272683A1 (Novo Nordisk, published 2016).)
